Biological target: CsrA-His6 (Escherichia coli, UniProt P69913 1-61)
Assay: EMSA; 10 mM Mg2+; apparent KD, cooperative equation; single shift; EMSA: 0.5 nM RNA, 10 mM MgCl2, 100 mM KCl, 32.5 ng yeast RNA, 20 mM DTT, 7.5% glycerol, 4 U SUPERasin, 37 C 30 min (pH not stated); footprint: 2 nM RNA, 10 mM Tris-HCl pH 7.5, 10 mM MgCl2, 100 mM KCl, 40 ng yeast RNA, 7.5% glycerol, 37 C
Settings: protein: recombinant; tags: His6 (C-terminal per name); chain copies: 2; label: 5'-32P

Sequence of CsrA-His6 (P69913 whole entry): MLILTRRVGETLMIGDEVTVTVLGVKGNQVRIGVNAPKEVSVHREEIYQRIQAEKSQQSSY

B1: dps EMSA transcript (ssRNA)
RNA: GGGUUAAUUACUGGGACAUAACAUCAAGAGGAUAUGAAAUUAUGAGUACCGC
Kd: 25 nM

Source: publication PMC6686035, “Regulation of Iron Storage by CsrA Supports Exponential Growth of Escherichia coli”
